Data from publication PMC4234410.

Target: Gallus gallus laforin (Gallus gallus) (UniProt Q5ZL46)
Test: SEC; first pass over a HiLoad 16/60 Superdex 200 column after IMAC and tag removal; buffer C (20 mM Tris/HCl pH 7.5, 100 mM NaCl, 2 mM DTT); multimer peak, dimer and monomer species seen

With “Gallus gallus laforin (from UniProt Q5ZL46 1-319) (enzyme)” the stoichiometry N was 2.
